According to PMC2132682:

Biological target: GST-NRX (cytoplasmic domain of Neurexin) (Drosophila) (UniProt Q94887)
Assay: pull-down

Chain of UniProt Q94887 (Q94887 1239-1284): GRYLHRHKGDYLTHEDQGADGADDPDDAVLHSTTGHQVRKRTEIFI

Row | % relative binding [%] | % relative binding of 32P-COR to NRX with the competitor [%] | Substance
1 | 100 |  | 32P-labeled Coracle (cDNA3 isoform, recombinant) (natural protein)
2 |  | 36.6 | unlabeled Coracle (cDNA3 isoform, recombinant) (natural protein)
